In patent US20150051136A1 (US Dept. of Health and Human Services, published 2015):

Target: T1, sRAGE^CHO(N25T/N81T) (human, UniProt Q15109 26-340)
T1 construct: also called sRAGE (N25T/N81T); N25T/N81T mutant
Assay: BIAcore SPR, sRAGE amine-coupled to CM5 chip, S100B as analyte, steady state model

T1 sequence (Q15109 other isoform, or with tags, fused parts or gaps N25T N81T N25T N81T): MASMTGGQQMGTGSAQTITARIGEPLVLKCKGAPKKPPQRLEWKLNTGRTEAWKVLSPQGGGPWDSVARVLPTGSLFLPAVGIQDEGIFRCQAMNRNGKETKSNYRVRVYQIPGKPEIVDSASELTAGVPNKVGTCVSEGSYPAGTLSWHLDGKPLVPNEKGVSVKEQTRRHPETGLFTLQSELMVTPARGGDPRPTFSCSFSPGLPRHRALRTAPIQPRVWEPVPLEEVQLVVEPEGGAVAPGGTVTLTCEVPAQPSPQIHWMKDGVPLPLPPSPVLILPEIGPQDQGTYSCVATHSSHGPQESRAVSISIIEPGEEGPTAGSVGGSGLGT

B1: S100B (ligand)
chain: MSELEKAMVALIDVFHQYSGREGDKHKLKKSELKELINNELSHFLEEIKEQEVVDKVMETLDNDGDGECDFQEFMAFVAMVTTACHEFFEHE
Kd: 13.6 nM
